Measured values: patent US20240117018A1

Legend:
Assay in all cases: cell-based or functional assay
[1] = target: 1006_11_C3_1601 Env pseudovirus (HIV-1)
[2] = target: 1394C9G1(Rev-) Env pseudovirus (HIV-1)
[3] = target: 191084 B7-19 Env pseudovirus (HIV-1)
[4] = target: 191955_A11 Env pseudovirus (HIV-1)
[5] = target: 246F C1G Env pseudovirus (HIV-1)
[6] = target: 249M B10 Env pseudovirus (HIV-1)
[7] = target: 3365.v2.c2 Env pseudovirus (HIV-1)
[8] = target: 3415.v1.c1 Env pseudovirus (HIV-1)
[9] = target: 62357_14_D3_4589 Env pseudovirus (HIV-1)
[10] = target: 6240_08_TA5_4622 Env pseudovirus (HIV-1)
[11] = target: 6535.3 Env pseudovirus (HIV-1)
[12] = target: 928-28 Env pseudovirus (HIV-1)
[13] = target: BF1266.431a Env pseudovirus (HIV-1)
[14] = target: CAP210.2.00.E8 Env pseudovirus (HIV-1)
[15] = target: CAP45.2.00.G3 Env pseudovirus (HIV-1)
[16] = target: CNE17 Env pseudovirus (HIV-1)
[17] = target: CNE20 Env pseudovirus (HIV-1)
[18] = target: CNE21 Env pseudovirus (HIV-1)
[19] = target: Ce0682_E4 Env pseudovirus (HIV-1)
[20] = target: Ce1086_B2 Env pseudovirus (HIV-1)
[21] = target: Ce2060_G9 Env pseudovirus (HIV-1)
[22] = target: Du156.12 Env pseudovirus (HIV-1)
[23] = target: HIV-001428-2.42 Env pseudovirus (HIV-1)
[24] = target: HIV-16055-2.3 Env pseudovirus (HIV-1)
[25] = target: HIV-16845-2.22 Env pseudovirus (HIV-1)
[26] = target: Q23.17 Env pseudovirus (HIV-1)
[27] = target: Q259.d2.17 Env pseudovirus (HIV-1)
[28] = target: Q769.d22 Env pseudovirus (HIV-1)
[29] = target: Q842.d12 Env pseudovirus (HIV-1)
[30] = target: QH0692.42 Env pseudovirus (HIV-1)
[31] = target: TRJO4551.58 Env pseudovirus (HIV-1)
[32] = target: TRO.11 Env pseudovirus (HIV-1)
[33] = target: WEAU_d15_410_787 Env pseudovirus (HIV-1)
[34] = target: ZM135M.PL10a Env pseudovirus (HIV-1)
[35] = target: ZM197M.PB7 Env pseudovirus (HIV-1)
[36] = target: ZM233M.PB6 Env pseudovirus (HIV-1)

B1: N49P23 (antibody, V domains shown)
VH: QVRLVQSGAGARKTGASMKLSCSTSGYTFTTHHGHFINWVRQARGQGLEWMGWMNPMTGQMNIEGKFQGRVTLTRDIYSDTAYMEMTRLTTGDTGTYYCARGDFGQNYPFHYWGQGSLVIVSS
VL: LSALTQPASVSGSPGQSVTISCSGTNRYLVSWYQQHPDKAPKLIIYDDNKRPSGISDRFSASRPDDTASLTISGLQTGDEATYWCASYERFGGGTRLTVLS
IC50 [1]: 0.015 µg/mL | IC80 [1]: 0.054 µg/mL | MPI [1]: 100 | IC50 [2]: > 50 µg/mL | IC80 [2]: > 50 µg/mL | MPI [2]: 34 | IC50 [3]: 0.013 µg/mL | IC80 [3]: 0.043 µg/mL | MPI [3]: 100 | IC50 [4]: > 50 µg/mL | IC80 [4]: > 50 µg/mL | MPI [4]: 31 | IC50 [5]: > 50 µg/mL | IC80 [5]: > 50 µg/mL | MPI [5]: 11 | IC50 [6]: > 50 µg/mL | IC80 [6]: > 50 µg/mL | MPI [6]: 20 | IC50 [7]: 0.017 µg/mL | IC80 [7]: 0.053 µg/mL | MPI [7]: 100 | IC50 [8]: 0.054 µg/mL | IC80 [8]: 0.19 µg/mL | MPI [8]: 100 | IC50 [9]: 0.057 µg/mL | IC80 [9]: 0.76 µg/mL | MPI [9]: 95 | IC50 [10]: 0.215 µg/mL | IC80 [10]: 1 µg/mL | MPI [10]: 100 | IC50 [11]: 0.127 µg/mL | IC80 [11]: 0.855 µg/mL | MPI [11]: 100 | IC50 [12]: 0.021 µg/mL | IC80 [12]: 0.122 µg/mL | MPI [12]: 100 | IC50 [13]: 0.083 µg/mL | IC80 [13]: 0.44 µg/mL | MPI [13]: 99 | IC50 [14]: > 50 µg/mL | IC80 [14]: > 50 µg/mL | MPI [14]: 2 | IC50 [15]: > 50 µg/mL | IC80 [15]: > 50 µg/mL | MPI [15]: 0 | IC50 [16]: 0.221 µg/mL | IC80 [16]: 0.809 µg/mL | MPI [16]: 100 | IC50 [17]: 45.4 µg/mL | IC80 [17]: > 50 µg/mL | MPI [17]: 51 | IC50 [18]: > 50 µg/mL | IC80 [18]: > 50 µg/mL | MPI [18]: 0 | IC50 [19]: 1.39 µg/mL | IC80 [19]: > 50 µg/mL | MPI [19]: 76 | IC50 [20]: 0.063 µg/mL | IC80 [20]: 0.303 µg/mL | MPI [20]: 100 | IC50 [21]: 0.18 µg/mL | IC80 [21]: 0.849 µg/mL | MPI [21]: 99 | IC50 [22]: > 50 µg/mL | IC80 [22]: > 50 µg/mL | MPI [22]: 0 | IC50 [23]: 0.036 µg/mL | IC80 [23]: 0.241 µg/mL | MPI [23]: 98 | IC50 [24]: > 50 µg/mL | IC80 [24]: > 50 µg/mL | MPI [24]: 17 | IC50 [25]: > 50 µg/mL | IC80 [25]: > 50 µg/mL | MPI [25]: 20 | IC50 [26]: 0.01 µg/mL | IC80 [26]: 0.046 µg/mL | MPI [26]: 100 | IC50 [27]: 0.362 µg/mL | IC80 [27]: 7.79 µg/mL | MPI [27]: 91 | IC50 [28]: 0.005 µg/mL | IC80 [28]: 0.025 µg/mL | MPI [28]: 100 | IC50 [29]: 0.007 µg/mL | IC80 [29]: 0.022 µg/mL | MPI [29]: 100 | IC50 [30]: 0.557 µg/mL | IC80 [30]: 2.51 µg/mL | MPI [30]: 100 | IC50 [31]: 0.016 µg/mL | IC80 [31]: 0.068 µg/mL | MPI [31]: 100 | IC50 [32]: 0.094 µg/mL | IC80 [32]: 0.336 µg/mL | MPI [32]: 100 | IC50 [33]: 0.009 µg/mL | IC80 [33]: 0.031 µg/mL | MPI [33]: 100 | IC50 [34]: > 50 µg/mL | IC80 [34]: > 50 µg/mL | MPI [34]: 36 | IC50 [35]: 0.1 µg/mL | IC80 [35]: 0.385 µg/mL | MPI [35]: 100 | IC50 [36]: > 50 µg/mL | IC80 [36]: > 50 µg/mL | MPI [36]: 14

B2: N49P22 (antibody, V domains shown)
V domain 1: HIQLLQSGPQVKKSGDTVRISCETSGYNFVDSRIHWVRQTPEKRLRWMGWINPLQGGVNYAPEFQGRIRMTRDTFIDTVYVDLSGLTPADTAYYYCARGIDGKSYPFHFWGHGTRVTVFS
V domain 2: RFALTQPASVSGSPGQTITITCAGGSVSWFHFPPGKTPRLIIYESSKRPSGVSPRFSGSQSGSTASLIISGLQSDDEGTYFCSILEFFGRGTLVTVLS
IC50 [1]: 0.898 µg/mL | IC80 [1]: 14.7 µg/mL | MPI [1]: 83 | IC50 [2]: > 50 µg/mL | IC80 [2]: > 50 µg/mL | MPI [2]: 35 | IC50 [3]: 0.343 µg/mL | IC80 [3]: 1.64 µg/mL | MPI [3]: 98 | IC50 [4]: > 50 µg/mL | IC80 [4]: > 50 µg/mL | MPI [4]: 9 | IC50 [5]: > 50 µg/mL | IC80 [5]: > 50 µg/mL | MPI [5]: 10 | IC50 [6]: > 50 µg/mL | IC80 [6]: > 50 µg/mL | MPI [6]: 4 | IC50 [7]: 0.254 µg/mL | IC80 [7]: 0.857 µg/mL | MPI [7]: 98 | IC50 [8]: 0.198 µg/mL | IC80 [8]: 1.41 µg/mL | MPI [8]: 96 | IC50 [9]: > 50 µg/mL | IC80 [9]: > 50 µg/mL | MPI [9]: 13 | IC50 [10]: 2.33 µg/mL | IC80 [10]: 9.76 µg/mL | MPI [10]: 93 | IC50 [11]: > 50 µg/mL | IC80 [11]: > 50 µg/mL | MPI [11]: 5 | IC50 [12]: > 50 µg/mL | IC80 [12]: > 50 µg/mL | MPI [12]: 32 | IC50 [13]: > 50 µg/mL | IC80 [13]: > 50 µg/mL | MPI [13]: 0 | IC50 [14]: > 50 µg/mL | IC80 [14]: > 50 µg/mL | MPI [14]: 6 | IC50 [15]: > 50 µg/mL | IC80 [15]: > 50 µg/mL | MPI [15]: 0 | IC50 [16]: 46.3 µg/mL | IC80 [16]: > 50 µg/mL | MPI [16]: 53 | IC50 [17]: > 50 µg/mL | IC80 [17]: > 50 µg/mL | MPI [17]: 18 | IC50 [18]: > 50 µg/mL | IC80 [18]: > 50 µg/mL | MPI [18]: 0 | IC50 [19]: 1.13 µg/mL | IC80 [19]: > 50 µg/mL | MPI [19]: 75 | IC50 [20]: > 50 µg/mL | IC80 [20]: > 50 µg/mL | MPI [20]: 0 | IC50 [21]: > 50 µg/mL | IC80 [21]: > 50 µg/mL | MPI [21]: 19 | IC50 [22]: > 50 µg/mL | IC80 [22]: > 50 µg/mL | MPI [22]: 4 | IC50 [23]: 0.73 µg/mL | IC80 [23]: 7.1 µg/mL | MPI [23]: 91 | IC50 [24]: 4.66 µg/mL | IC80 [24]: 39.7 µg/mL | MPI [24]: 83 | IC50 [25]: 4.6 µg/mL | IC80 [25]: 41.9 µg/mL | MPI [25]: 87 | IC50 [26]: 0.321 µg/mL | IC80 [26]: 2.4 µg/mL | MPI [26]: 96 | IC50 [27]: > 50 µg/mL | IC80 [27]: > 50 µg/mL | MPI [27]: 15 | IC50 [28]: 0.043 µg/mL | IC80 [28]: 0.259 µg/mL | MPI [28]: 100 | IC50 [29]: 0.079 µg/mL | IC80 [29]: 0.359 µg/mL | MPI [29]: 100 | IC50 [30]: 0.592 µg/mL | IC80 [30]: 2.02 µg/mL | MPI [30]: 100 | IC50 [31]: > 50 µg/mL | IC80 [31]: > 50 µg/mL | MPI [31]: 28 | IC50 [32]: 0.283 µg/mL | IC80 [32]: 1.36 µg/mL | MPI [32]: 99 | IC50 [33]: 1.54 µg/mL | IC80 [33]: > 50 µg/mL | MPI [33]: 76 | IC50 [34]: > 50 µg/mL | IC80 [34]: > 50 µg/mL | MPI [34]: 27 | IC50 [35]: 2.58 µg/mL | IC80 [35]: 25.1 µg/mL | MPI [35]: 84 | IC50 [36]: > 50 µg/mL | IC80 [36]: > 50 µg/mL | MPI [36]: 2
